Data on one molecule can be found in publication PMC7936274.

The target of the series is T1, OapB (Bacillus halodurans, UniProt Q9KGD7 5-102).
T1 sequence: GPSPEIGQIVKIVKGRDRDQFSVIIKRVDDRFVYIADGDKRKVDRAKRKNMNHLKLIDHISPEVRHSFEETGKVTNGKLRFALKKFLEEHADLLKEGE
Put plainly: X-ray crystallography.

B1: OLE* (P12.2, P13, P14, P15 minimized OLE RNA) (structured_RNA)
RNA: GGCCAGUCUGGCGUUUGGUGACAGCGCCAAGUUCUUCGGAAUUGGGAAAUCCUACUGGCC
On to B1, for which the binding result is “binds”.
